Results: patent US20250155438A1 (KING ABDULAZIZ UNIVERSITY, published 2025)

Molecular target: T1, SARS-CoV-2 nucleocapsid protein (SARS-CoV-2, UniProt P0DTC9 1-419)
T1 construct: also called NCAP; N-capsid

B1: anti-NCAP-2 nanobody (VHH, not shown: small tags and cut ends)
VHH: QVQLVESGGALMQAGGSLRLSCAVSGIRLGYYTIAWFRQAPGKEREGISCISRSEGSTYYADSVKGRFTISTENAENTVYLQMNSLKPDDTAVYYCAVDFVPASHCAVANTKGYDYWGQGTQVTVSS
notes: also called N Capsid nanobody NCAP-2
binding result: binds
